Measurements from PMC11087270, “CryoEM structures reveal how the bacterial flagellum rotates and switches direction” (Nature Microbiology, 2024).
Several values for one entry are separate records, joined by “and”; a condition that tells them apart may be missing. Equal values may be shown once.

B1: FliG ΔPAA (S. enterica serovar typhimurium), extreme CW-biased mutant (natural protein)
chain: MSNLSGTDKSVILLMTIGEDRAAEVFKHLSTREVQALSTAMANVRQISNKQLTDVLSEFEQEAEQFAALNINANEYLRSVLVKALGEERASSLLEDILETRDTTSGIETLNFMEPQSAADLIRDEHPQIIATILVHLKRSQAADILALFDERLRHDVMLRIATFGGVQLAELTEVLNGLLDGQNLKRSKMGGVRTAAEIINLMKTQQEEAVITAVREFDGELAQKIIDEMFLFENLVDVDDRSIQRLLQEVDSESLLIALKGAEPPLREKFLRNMSQRAADILRDDLANRGPVRLSQVENEQKAILLIVRRLAETGEMVIGSGEDTYV
notes: FliG, S. enterica serovar typhimurium, with the Pro-Ala-Ala (PAA) motif FliG 169-171 deleted; also called switch_(ΔPAA); CW-locked; source: switch particles containing the FliG ΔPAA mutation; expression and purification as told for the FliFGMN subunits (E. coli BL21-Gold, differential membrane extraction)
B2: FliM (S. enterica serovar typhimurium), C-ring switch subunit (natural protein, UniProt P26418 1-334, looked up)
chain: MGDSILSQAEIDALLNGDSDTKDEPTPGIASDSDIRPYDPNTQRRVVRERLQALEIINERFARQFRMGLFNLLRRSPDITVGAIRIQPYHEFARNLPVPTNLNLIHLKPLRGTGLVVFSPSLVFIAVDNLFGGDGRFPTKVEGREFTHTEQRVINRMLKLALEGYSDAWKAINPLEVEYVRSEMQVKFTNITTSPNDIVVNTPFHVEIGNLTGEFNICLPFSMIEPLRELLVNPPLENSRHEDQNWRDNLVRQVQHSELELVANFADIPLRLSQILKLKPGDVLPIEKPDRIIAHVDGVPVLTSQYGTVNGQYALRVEHLINPILNSLNEEQPK
notes: FliM, S. enterica serovar typhimurium, expressed from the fliM gene on plasmid pKLR3; FliML1 31-50, FliMmid 51-230, FliML2 231-256 and FliMC 257-330 described in the C-ring; no tag is told; also called FliML1; FliMmid; source: E. coli BL21-Gold, coexpressed from plasmid pKLR3; MSC-ring particles partially purified by differential membrane extraction
B3: FliG (S. enterica serovar typhimurium), wild type, C-ring switch subunit (natural protein, UniProt P0A1J9 1-331, looked up)
chain: MSNLSGTDKSVILLMTIGEDRAAEVFKHLSTREVQALSTAMANVRQISNKQLTDVLSEFEQEAEQFAALNINANEYLRSVLVKALGEERASSLLEDILETRDTTSGIETLNFMEPQSAADLIRDEHPQIIATILVHLKRSQAADILALFDERLRHDVMLRIATFGGVQPAALAELTEVLNGLLDGQNLKRSKMGGVRTAAEIINLMKTQQEEAVITAVREFDGELAQKIIDEMFLFENLVDVDDRSIQRLLQEVDSESLLIALKGAEPPLREKFLRNMSQRAADILRDDLANRGPVRLSQVENEQKAILLIVRRLAETGEMVIGSGEDTYV
notes: FliG, S. enterica serovar typhimurium, expressed from the fliG gene on plasmid pKLR3; residues 1-331 modelled in the C-ring; no tag is told; also called FliGD1; FliGD2; source: E. coli BL21-Gold, coexpressed from plasmid pKLR3; MSC-ring particles partially purified by differential membrane extraction
B4: FliN (S. enterica serovar typhimurium), C-ring switch subunit (natural protein, UniProt P26419 1-137, looked up)
chain: MSDMNNPSDENTGALDDLWADALNEQKATTTKSAADAVFQQLGGGDVSGAMQDIDLIMDIPVKLTVELGRTRMTIKELLRLTQGSVVALDGLAGEPLDILINGYLIAQGEVVVVADKYGVRITDIITPSERMRRLSR
notes: FliN, S. enterica serovar typhimurium, expressed from the fliN gene on plasmid pKLR3; residues 45/59/63-137 of the three non-equivalent copies modelled in the C-ring; no tag is told; also called FliNC; FliN1; source: E. coli BL21-Gold, coexpressed from plasmid pKLR3; MSC-ring particles partially purified by differential membrane extraction
B5: FliF (S. enterica serovar typhimurium), subunit of the MS-ring whose C-terminus (FliFC) lies in the C-ring (natural protein)
chain: MSATASTATQPKPLEWLNRLRANPRIPLIVAGSAAVAIVVAMVLWAKTPDYRTLFSNLSDQDGGAIVAQLTQMNIPYRFANGSGAIEVPADKVHELRLRLAQQGLPKGGAVGFELLDQEKFGISQFSEQVNYQRALEGELARTIETLGPVKSARVHLAMPKPSLFVREQKSPSASVTVTLEPGRALDEGQISAVVHLVSSAVAGLPPGNVTLVDQSGHLLTQSNTSGRDLNDAQLKFANDVESRIQRRIEAILSPIVGNGNVHAQVTAQLDFANKEQTEEHYSPNGDASKATLRSRQLNISEQVGAGYPGGVPGALSNQPAPPNEAPIATPPTNQQNAQNTPQTSTSTNSNSAGPRSTQRNETSNYEVDRTIRHTKMNVGDIERLSVAVVVNYKTLADGKPLPLTADQMKQIEDLTREAMGFSDKRGDTLNVVNSPFSAVDNTGGELPFWQQQSFIDQLLAAGRWLLVLVVAWILWRKAVRPQLTRRVEEAKAAQEQAQVRQETEEAVEVRLSKDEQLQQRRANQRLGAEVMSQRIREMSDNDPRVVALVIRQWMSNDHE
notes: FliF, S. enterica serovar typhimurium, expressed from the fliF gene on plasmid pKLR3; residues 50-428 modelled in the MS-ring and 514-560 (FliFC) in the C-ring; no tag is told; also called MS-ring subunit; source: E. coli BL21-Gold, coexpressed from plasmid pKLR3; MSC-ring particles partially purified by differential membrane extraction

What was measured:
[1] = target: B5; assay: cryo-EM structure; MSC-ring particles with FliG ΔPAA (CW pose); C34 symmetry applied, symmetry expansion and local refinement of three staves; 4.6 Å; details: both partners purified
[2] = target: the molecule itself; assay: as above
[3] = target: the molecule itself; assay: cryo-EM structure; wild-type MSC-ring particles (CCW pose); MS-ring or C-ring removed by particle subtraction; C-ring 34-mer at 4.0 Å (33-, 35-, 36-mer classes too), MS-ring 33-mer at 3.4 Å
[4] = target: B5; assay: as above; details: both partners purified
[5] = target: B2; assay: as above; details: both partners purified

B1
binding result [1]: binds | binding result [2]: binds

B2
stoichiometry N [3]: 34

B3
binding result [4]: binds | stoichiometry N [3]: 34 and 33 and 35 and 36

B4
binding result [2]: binds | stoichiometry N [5]: 3 FliN per FliM

B5
stoichiometry N [3]: 33
